According to patent publication US20230032087A1 (CULLINAN ONCOLOGY, published 2023):

Target: protein A (UniProt P38507 37-327)
Experiment: ForteBio Octet HTX (filing: SPR), HCAb on AHC sensors, 1:1 model

B1: CNG-HSA-101 (VHH)
VHH: KVQLVESGGGLVQPGGSLRLSCAASGFTFSSFGMTWVRQAPGKGLEWVSSISGSGSDTLYADSVRGRFTISRDNSKNTLYLQMNSLRAEDTAVYYCTIGGSLSPSSQGTLVTVSS
Kd: ≤ 1.84 nM | koff: ≤ 0.0002 s⁻¹
